# Source: article PMC4370742, “Expression, purification, and characterization of galactose oxidase of Fusarium sambucinum in E. coli” (Protein Expression and Purification, 2015)
# B1: galactose oxidase (GalOx) of Fusarium sambucinum (Fusarium sambucinum) (protein)
# chain: ASAPIGSAISRNNWAVTCDSAQPGNECNKAIDGNRDTFWHTFYGANGDPKPPHTYNIDMKTTQNVNGLSMLPRQDGSQNGWIGRHEVYLSSDGKTWGSPVATGSWFADSTTKYSNFETRPARYVRLVALAEANGQPWTSIAEINVYQASSYTAPQPGLGRWGPTIDLPIVPAAAAIEPTSGRVLMWSSYRNDAFGGSPGGVTLTSSWDPSSGIVSDRTVTVTKHDMFCPGISMDGNGQIVVTGGNDAKKTSLYDSPSDSWVPGPDMQVARGYQSSATMSDGRVFTIGGSWSGGIFEKNGEVYSPSSKTWTSLPNAKVNPMLTADKQGLYRSDNHAWLFGWKKGSVFQAGPSTAMNWYYTSGSGDVKSAGKRQSNRGVAPDAMCGNAVMYDAVQGKILTFGGSPDYQDSDATTNAHIITLGEPGSTPKTVFASNGLYFARTFHTSVVLPDGSTFITGGQRRGIPFEDSTPVLTPEIYVPEQDTFYKQNPNSIVRVYHSISLLLPDGRVFNGGGGLCGDCTTNHFDAQIFTPNYLYDSNGNLATRPKITRTSTQSVKVGGRVTISTDYSIRKASLIRYGTATHTVNTDQRRIPLTLMNNGGNSYSFQVPSDTGIALPGYWMLFVINSAGVPSVASTIRVTQ
# notes: C-terminal His6 tag kept (pET21a NdeI/NotI); E. coli BL21(DE3); IMAC
# How the values were obtained:
# purified protein [1] = substrate: OC[C@H]1O[C@H](OC[C@H]2O[C@H](O[C@]3(CO)O[C@H](CO)[C@@H](O)[C@@H]3O)[C@H](O)[C@@H](O)[C@@H]2O)[C@H](O)[C@@H](O)[C@H]1O; test: purified protein; format: biochemical, Fusarium sambucinum; conditions: O2 at air saturation, 20 mM potassium phosphate pH 7.0, 30 °C, Cu-activated enzyme
# purified protein [2] = substrate: CO[C@@H]1O[C@H](CO)[C@H](O)[C@H](O)[C@H]1O; test: purified protein; format: biochemical, Fusarium sambucinum; conditions: O2 at air saturation, 20 mM potassium phosphate pH 7.0, 30 °C, Cu-activated enzyme
protein,measurement,setting,value
B1,Km,purified protein [1],20 ± 2.3 mM
same,Vmax,purified protein [1],43 µmol/min/mg
same,kcat,purified protein [1],49 s⁻¹
same,kcat/Km,purified protein [1],2500 M⁻¹ s⁻¹
same,Km,purified protein [2],39 ± 1.7 mM
same,Vmax,purified protein [2],67 µmol/min/mg
same,kcat,purified protein [2],77 s⁻¹
same,kcat/Km,purified protein [2],2000 M⁻¹ s⁻¹
